{
  "source": "patent EP4349860A1",
  "assay_in_all_cases": "cell-based or functional assay",
  "key": {"[1]": {"target": "SARS-CoV-2 spike protein, Alpha (B.1.1.7) variant, on pseudovirus (SARS-CoV-2 (Alpha variant))"}, "[2]": {"target": "SARS-CoV-2 spike protein, Beta (B.1.351) variant, on pseudovirus (SARS-CoV-2 (Beta variant))"}, "[3]": {"target": "SARS-CoV-2 spike protein, Delta (B.1.617.2) variant, on pseudovirus (SARS-CoV-2 (Delta variant))"}, "[4]": {"target": "SARS-CoV-2 spike protein, Gamma (P.1) variant, on pseudovirus (SARS-CoV-2 (Gamma variant))"}, "[5]": {"target": "SARS-CoV-2 spike protein, Omicron BA.2 variant, on pseudovirus (SARS-CoV-2 (Omicron BA.2 variant))"}, "[6]": {"target": "SARS-CoV-2 spike protein, Omicron BA.4/BA.5 variants, on pseudovirus (SARS-CoV-2 (Omicron BA.4/BA.5 variants))"}},
  "data": [
    {"substance": "S2E12 (antibody)", "values": [
      {"measurement": "IC50 (µg/ml), pseudotyped virus neutralization", "setting": "[1]", "result": 0.0004, "unit": "µg/mL"},
      {"measurement": "IC50 (µg/ml), pseudotyped virus neutralization", "setting": "[2]", "result": "< 0.0003", "unit": "µg/mL"},
      {"measurement": "IC50 (µg/ml), pseudotyped virus neutralization", "setting": "[3]", "result": "< 0.0003", "unit": "µg/mL"},
      {"measurement": "IC50 (µg/ml), pseudotyped virus neutralization", "setting": "[4]", "result": 0.0003, "unit": "µg/mL"},
      {"measurement": "IC50 (µg/ml), pseudotyped virus neutralization", "setting": "[5]", "result": 0.137, "unit": "µg/mL"},
      {"measurement": "IC50 (µg/ml), pseudotyped virus neutralization", "setting": "[6]", "result": "> 1", "unit": "µg/mL"}
    ]},
    {"substance": "S309 (antibody)", "values": [
      {"measurement": "IC50 (µg/ml), pseudotyped virus neutralization", "setting": "[1]", "result": 0.0347, "unit": "µg/mL"},
      {"measurement": "IC50 (µg/ml), pseudotyped virus neutralization", "setting": "[2]", "result": 0.0043, "unit": "µg/mL"},
      {"measurement": "IC50 (µg/ml), pseudotyped virus neutralization", "setting": "[3]", "result": 0.0336, "unit": "µg/mL"},
      {"measurement": "IC50 (µg/ml), pseudotyped virus neutralization", "setting": "[4]", "result": 0.0083, "unit": "µg/mL"},
      {"measurement": "IC50 (µg/ml), pseudotyped virus neutralization", "setting": "[5]", "result": 0.416, "unit": "µg/mL"},
      {"measurement": "IC50 (µg/ml), pseudotyped virus neutralization", "setting": "[6]", "result": 0.142, "unit": "µg/mL"}
    ]}
  ]
}
